# Data reported in patent US7488588 (LICENTIA, dated 2009).
# T1: rat GDNF (glial cell line-derived neurotrophic factor) (rat, UniProt Q07731 78-211)
# T1 sequence (looked up): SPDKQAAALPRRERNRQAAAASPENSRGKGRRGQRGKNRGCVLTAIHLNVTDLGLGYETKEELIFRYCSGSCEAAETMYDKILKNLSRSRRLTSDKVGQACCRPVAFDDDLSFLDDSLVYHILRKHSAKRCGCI
# T2: human neurturin (NRTN) (human, UniProt Q99748 96-197)
# T2 sequence (looked up): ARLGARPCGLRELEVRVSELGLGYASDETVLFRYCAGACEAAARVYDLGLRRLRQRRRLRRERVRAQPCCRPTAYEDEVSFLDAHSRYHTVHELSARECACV
# B1: human GFRα4, GPI-anchored isoform a (GFRα4a) (receptor)
# chain: VGGNRCVDAAEACTADARCQRLRSEYVAQCLGRAAQGGCPRARCRRALRRFFARGPPALTHALLFCPCAGPACAERRRQTFVPSCAFSGPGPAPPSCLEPLNFCERSRVCRPRLLAFQVSCTPAPSAPDGCLLDQGARCLRAYAGLVGTAVTPNYVDNVSARVAPWCDCGASGNRREDCEAFRGLFTRNRCLDGAIQAFASGWPPVLLDQLNPQGDPEHSLLQVSSTG
# modifications: GPI anchor (released by PI-PLC)
# notes: Expressed from full-length GFRA4a cDNA (pCR3.1) in mouse Neuro-2a cells (endogenous Ret), in CHO cells (no Ret) or microinjected into mouse SCG neurons; also called hGFRα4; GFRA4a
# B2: human persephin (PSPN) (ligand, UniProt O60542 61-156, looked up)
# chain: ALSGPCQLWSLTLSVAELGLGYASEEKVIFRYCAGSCPRGARTQHGLALARLQGQGRAHGGPCCRPTRYTDVAFLDDRHRWQRLPQLSAAACGCGG
# notes: Cross-linking gels show monomer (approx. 14-16 kDa) and dimer (32 kDa) bands; also called unlabeled PSPN
# What was measured:
# [1] = biological target: T1, rat GDNF (glial cell line-derived …); assay: displacement of 0.9 nM [125I]PSPN from GFRA4a-transfected Neuro-2a cells
# Method: (§1) J. Milbrandt and E. M. Johnson, Jr.). […] was calculated using Cheng-Prusoff equation (McGonigle, et al., 1994).
# human neurturin (NRTN) = biological target: T2, human neurturin (NRTN); assay: as above
# Method: as §1
# human persephin (PSPN) = biological target: B2; assay: displacement of [125I]PSPN from GFRA4a-transfected Neuro-2a cells; KD calculated using Cheng-Prusoff equation
# Method: as §1
# [2] = biological target: B1; assay: displacement of 0.9 nM [125I]PSPN by unlabeled PSPN from GFRA4a-transfected Neuro-2a cells (endogenous Ret), 4 hrs on ice
# Method: as §1
binding result [1],binding result (human neurturin (NRTN)),Kd (human persephin (PSPN)) [pM],IC50 [2] [pM],Binder
no binding (tested: up to 300 nM),no binding (tested: up to 200 nM),~100,–,B1
–,–,–,1000,B2
